Test results published in article PMC9114768 (Frontiers in Immunology, 2022).

Assays:
Details in all cases: both partners purified
[1] = target: T1, S1-RBD peptide 13 (SARS-CoV-2 (YP_009724390)); assay: ELISA
T1 construct: source: synthetic peptide (Leadgene Biomedical)
T1 chain: PFERDISTEIYQAGS

[2] = target: T2, C-terminal Fc-tagged human ACE2 recombinant protein (Homo sapiens, UniProt Q9BYF1); assay: SPR; Biacore T200; […]; mAb 1024 nM to 8 nM; 30 μL/min, 120 s association, 360 s dissociation; 25°C; 1:1 binding model
T2 construct: also called ACE2-hFc; recombinant ACE2-hFc; source: CHO cells, purified (Leadgene Biomedical Cat. No. 63333); not shown: Fc (human, hFc), C-terminal, kept

[3] = target: His-tagged SARS-CoV-2 S1-RBD recombinant protein, wild type (SARS-CoV-2 (YP_009724390), UniProt P0DTC2); assay: SPR; Biacore T200; […]; mAb 256 nM to 8 nM; 30 μL/min, 120 s association, 360 s dissociation; 25°C; 1:1 binding model

T2 sequence (Q9BYF1 18-740): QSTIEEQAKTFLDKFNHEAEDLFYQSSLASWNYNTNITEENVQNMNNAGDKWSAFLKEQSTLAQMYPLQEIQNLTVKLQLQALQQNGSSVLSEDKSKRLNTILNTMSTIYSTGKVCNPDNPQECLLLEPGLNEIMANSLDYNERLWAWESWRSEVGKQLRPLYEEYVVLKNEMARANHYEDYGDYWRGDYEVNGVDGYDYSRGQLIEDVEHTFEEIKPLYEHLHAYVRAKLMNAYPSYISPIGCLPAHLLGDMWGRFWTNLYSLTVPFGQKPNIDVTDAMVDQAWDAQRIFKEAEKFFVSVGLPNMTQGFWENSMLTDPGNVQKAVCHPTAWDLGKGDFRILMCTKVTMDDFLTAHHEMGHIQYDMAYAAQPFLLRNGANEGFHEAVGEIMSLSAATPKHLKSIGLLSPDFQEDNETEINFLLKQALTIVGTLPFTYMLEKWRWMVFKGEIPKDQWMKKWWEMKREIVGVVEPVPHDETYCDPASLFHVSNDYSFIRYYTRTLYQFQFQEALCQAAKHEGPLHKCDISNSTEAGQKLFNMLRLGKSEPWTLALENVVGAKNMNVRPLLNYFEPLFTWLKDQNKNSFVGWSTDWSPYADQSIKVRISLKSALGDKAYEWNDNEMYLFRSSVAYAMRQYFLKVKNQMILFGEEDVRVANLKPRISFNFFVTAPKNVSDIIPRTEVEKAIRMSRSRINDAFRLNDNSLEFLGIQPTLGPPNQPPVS

Binder	binding result [1]	Kd [2]	Kd [3]
monoclonal antibody 127 (antibody, V domains shown) VH: QVQLQQPGAELVKPGASVKLSCKASGYTFTSYWMHWVKQRPGQGLEWIGEINPSNGRKNYNEKFKSKATLTVDKSSSTAYMQLSSLTSEDSAVYYCVRGDYGSSYYWYFDVWGAGTTVTVSS VL: not shown	binds	16.1 nM	2.44 nM
monoclonal antibody 150 (antibody, V domains shown, also called mAb 150) VH: QVQLQQPGAELVKPGASVKLSCKASGYTFTSYWMHWVKQRPGQGLEWIGEINPSNGRKNYNEKFKSKATLTVDKSSSTAYMQLSSLTSEDSAVYYCVRGDYGSSYYWYFDVWGAGTTVTVSS VL: not shown	binds	2770 nM	3.87 nM
